Experimental data taken from the supplement of paper PMC5998384.

What was measured:
[1] = tested on: HeLa Kyoto; assay: solubility change mitosis vs G1/S (difference of NP-40 vs SDS log2 ratios) (log2 ratio difference); higher = more soluble in mitosis
[2] = tested on: HeLa Kyoto; assay: thermal stability score vs G1/S (z-score of summed log2 fold changes over temperatures); higher = more thermally stable than in G1/S
[3] = tested on: HeLa Kyoto; assay: melting temperature (median over replicates), in situ; higher = more thermally stable
[4] = tested on: HeLa Kyoto; assay: solubility in G1/S (NP-40 vs SDS abundance) (log2 ratio); higher = more soluble; conditions: cell cycle stage: G1/S
[5] = cell cycle stage: early G1 (4.5 h after nocodazole release)
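Wherever melting temperature (median over replicates), in situ is given: HeLa Kyoto cells synchronized by double thymidine or nocodazole block, proteins quantified by TMT10plex mass spectrometry, three independent biological replicates.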
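Wherever solubility change mitosis vs G1/S (difference of NP-40 vs SDS log2 ratios) is given: synchronized HeLa Kyoto cells (double thymidine block for G1/S, nocodazole release for mitosis), protein amounts in NP-40 versus SDS lysates quantified by mass spectrometry, three biological replicates.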
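Wherever solubility in G1/S (NP-40 vs SDS abundance) is given: HeLa Kyoto cells arrested at G1/S by double thymidine block, proteins quantified by TMT10plex mass spectrometry in mild NP-40 versus SDS extracts, three biological replicates.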
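Wherever thermal stability score vs G1/S (z-score of summed log2 fold changes over temperatures) is given: synchronized HeLa Kyoto cells, proteins quantified by TMT10plex mass spectrometry, three biological replicates, mitosis taken 0.5 h after nocodazole release, G1/S directly after double thymidine block.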

NDRG1, sequence (chain, as listed by the source): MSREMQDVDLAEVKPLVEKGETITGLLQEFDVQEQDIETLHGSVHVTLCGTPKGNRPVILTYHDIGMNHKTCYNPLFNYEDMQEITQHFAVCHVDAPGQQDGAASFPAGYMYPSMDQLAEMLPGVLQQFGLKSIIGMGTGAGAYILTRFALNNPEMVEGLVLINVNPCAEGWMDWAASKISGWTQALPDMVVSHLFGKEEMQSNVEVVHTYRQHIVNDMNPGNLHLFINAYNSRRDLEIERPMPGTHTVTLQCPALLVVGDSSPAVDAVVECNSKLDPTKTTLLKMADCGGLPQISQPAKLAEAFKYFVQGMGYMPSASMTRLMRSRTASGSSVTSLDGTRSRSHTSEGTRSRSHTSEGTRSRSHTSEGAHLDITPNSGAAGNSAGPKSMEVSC
PPIE, sequence (chain, as listed by the source): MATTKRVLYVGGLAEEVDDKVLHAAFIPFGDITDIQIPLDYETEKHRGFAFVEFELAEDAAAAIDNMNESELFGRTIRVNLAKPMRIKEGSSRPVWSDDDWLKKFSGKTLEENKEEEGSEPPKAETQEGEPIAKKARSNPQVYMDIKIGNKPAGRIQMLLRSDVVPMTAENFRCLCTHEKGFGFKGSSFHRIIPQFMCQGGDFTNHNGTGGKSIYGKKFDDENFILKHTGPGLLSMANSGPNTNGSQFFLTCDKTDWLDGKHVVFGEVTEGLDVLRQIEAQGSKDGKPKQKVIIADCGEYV
PELP1, sequence (chain, as listed by the source): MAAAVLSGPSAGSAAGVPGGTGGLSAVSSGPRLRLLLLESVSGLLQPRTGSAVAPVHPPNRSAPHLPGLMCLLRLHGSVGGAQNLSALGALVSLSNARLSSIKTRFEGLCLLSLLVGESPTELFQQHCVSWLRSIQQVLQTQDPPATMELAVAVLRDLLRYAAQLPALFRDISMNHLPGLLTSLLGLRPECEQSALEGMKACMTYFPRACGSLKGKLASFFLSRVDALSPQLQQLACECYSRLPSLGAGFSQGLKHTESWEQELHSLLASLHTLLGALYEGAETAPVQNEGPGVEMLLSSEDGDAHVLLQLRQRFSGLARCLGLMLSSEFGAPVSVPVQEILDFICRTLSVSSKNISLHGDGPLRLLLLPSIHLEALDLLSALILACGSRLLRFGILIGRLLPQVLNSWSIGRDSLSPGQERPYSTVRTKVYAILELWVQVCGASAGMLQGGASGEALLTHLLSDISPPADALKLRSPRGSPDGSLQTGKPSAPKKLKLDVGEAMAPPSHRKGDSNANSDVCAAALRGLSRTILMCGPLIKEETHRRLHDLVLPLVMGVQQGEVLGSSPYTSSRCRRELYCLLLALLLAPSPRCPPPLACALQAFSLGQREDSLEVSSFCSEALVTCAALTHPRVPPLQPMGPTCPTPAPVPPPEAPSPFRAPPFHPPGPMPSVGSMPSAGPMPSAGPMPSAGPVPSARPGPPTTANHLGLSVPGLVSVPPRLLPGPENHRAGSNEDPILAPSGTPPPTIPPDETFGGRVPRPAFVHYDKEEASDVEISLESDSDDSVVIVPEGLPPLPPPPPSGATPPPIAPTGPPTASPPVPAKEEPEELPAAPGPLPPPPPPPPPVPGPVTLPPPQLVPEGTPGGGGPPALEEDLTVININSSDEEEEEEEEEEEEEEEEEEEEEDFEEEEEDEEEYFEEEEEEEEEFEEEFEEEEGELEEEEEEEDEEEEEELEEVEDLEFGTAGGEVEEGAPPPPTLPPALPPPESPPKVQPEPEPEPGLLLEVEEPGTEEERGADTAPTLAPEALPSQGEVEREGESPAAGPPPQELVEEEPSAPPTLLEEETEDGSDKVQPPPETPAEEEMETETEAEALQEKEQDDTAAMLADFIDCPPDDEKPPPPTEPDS
PRSS21, sequence (chain, as listed by the source): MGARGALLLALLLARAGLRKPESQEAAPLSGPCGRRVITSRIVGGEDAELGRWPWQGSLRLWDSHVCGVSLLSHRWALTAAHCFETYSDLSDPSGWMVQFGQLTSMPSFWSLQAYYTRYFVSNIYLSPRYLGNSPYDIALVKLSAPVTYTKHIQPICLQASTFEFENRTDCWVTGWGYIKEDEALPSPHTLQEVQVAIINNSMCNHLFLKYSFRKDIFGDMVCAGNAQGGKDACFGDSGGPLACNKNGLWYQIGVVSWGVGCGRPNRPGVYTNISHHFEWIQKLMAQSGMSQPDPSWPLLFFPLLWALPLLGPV
NRBP1, sequence (chain, as listed by the source): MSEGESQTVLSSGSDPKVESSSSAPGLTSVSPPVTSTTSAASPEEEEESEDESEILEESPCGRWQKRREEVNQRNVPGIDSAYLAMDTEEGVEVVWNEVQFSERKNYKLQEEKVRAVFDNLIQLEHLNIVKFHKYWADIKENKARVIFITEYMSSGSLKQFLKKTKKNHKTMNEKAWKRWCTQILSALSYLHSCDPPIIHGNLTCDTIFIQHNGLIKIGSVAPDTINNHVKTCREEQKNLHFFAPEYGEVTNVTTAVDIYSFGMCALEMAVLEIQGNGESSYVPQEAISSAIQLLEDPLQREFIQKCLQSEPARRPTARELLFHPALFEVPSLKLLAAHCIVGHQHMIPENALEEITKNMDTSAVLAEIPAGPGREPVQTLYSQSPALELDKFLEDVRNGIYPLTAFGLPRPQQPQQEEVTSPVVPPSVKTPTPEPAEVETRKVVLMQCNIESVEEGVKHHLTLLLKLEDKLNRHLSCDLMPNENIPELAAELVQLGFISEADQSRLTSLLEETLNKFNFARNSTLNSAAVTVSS
PTBP3, sequence (chain, as listed by the source): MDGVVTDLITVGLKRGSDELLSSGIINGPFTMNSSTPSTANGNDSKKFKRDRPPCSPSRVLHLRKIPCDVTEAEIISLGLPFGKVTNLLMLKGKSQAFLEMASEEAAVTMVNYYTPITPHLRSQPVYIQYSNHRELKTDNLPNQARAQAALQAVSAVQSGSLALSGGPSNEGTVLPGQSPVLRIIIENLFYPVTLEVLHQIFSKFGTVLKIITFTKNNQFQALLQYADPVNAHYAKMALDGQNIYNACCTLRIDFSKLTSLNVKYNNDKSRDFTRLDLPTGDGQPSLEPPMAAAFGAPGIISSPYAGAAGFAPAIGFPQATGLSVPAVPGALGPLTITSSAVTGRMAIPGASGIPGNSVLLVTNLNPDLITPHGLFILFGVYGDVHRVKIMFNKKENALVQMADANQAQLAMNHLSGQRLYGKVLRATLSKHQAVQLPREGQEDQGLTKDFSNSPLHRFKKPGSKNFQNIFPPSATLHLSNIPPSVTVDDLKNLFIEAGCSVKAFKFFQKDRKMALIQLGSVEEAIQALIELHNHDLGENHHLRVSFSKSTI
NUDC, sequence (chain, as listed by the source): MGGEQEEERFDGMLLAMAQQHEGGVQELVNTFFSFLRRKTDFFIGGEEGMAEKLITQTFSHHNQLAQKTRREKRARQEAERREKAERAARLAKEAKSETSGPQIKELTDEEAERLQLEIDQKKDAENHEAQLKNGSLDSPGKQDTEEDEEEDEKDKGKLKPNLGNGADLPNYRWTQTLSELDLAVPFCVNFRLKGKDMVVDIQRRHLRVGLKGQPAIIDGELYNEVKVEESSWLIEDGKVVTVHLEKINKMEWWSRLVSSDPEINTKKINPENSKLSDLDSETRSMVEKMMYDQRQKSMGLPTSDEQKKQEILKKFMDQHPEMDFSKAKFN
PPIC, sequence (chain, as listed by the source): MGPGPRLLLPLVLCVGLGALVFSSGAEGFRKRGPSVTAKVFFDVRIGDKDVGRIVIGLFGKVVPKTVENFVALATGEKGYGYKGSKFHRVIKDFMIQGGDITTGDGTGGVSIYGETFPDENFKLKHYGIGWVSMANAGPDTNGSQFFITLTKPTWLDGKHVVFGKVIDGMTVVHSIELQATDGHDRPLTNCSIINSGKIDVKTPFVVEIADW
PPIB, sequence (chain, as listed by the source): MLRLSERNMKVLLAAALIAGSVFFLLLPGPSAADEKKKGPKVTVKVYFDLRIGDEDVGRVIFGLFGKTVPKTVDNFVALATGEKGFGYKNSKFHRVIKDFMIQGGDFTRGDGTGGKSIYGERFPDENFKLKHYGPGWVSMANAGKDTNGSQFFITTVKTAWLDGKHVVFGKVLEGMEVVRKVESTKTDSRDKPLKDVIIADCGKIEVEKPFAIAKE
PNO1, sequence (chain, as listed by the source): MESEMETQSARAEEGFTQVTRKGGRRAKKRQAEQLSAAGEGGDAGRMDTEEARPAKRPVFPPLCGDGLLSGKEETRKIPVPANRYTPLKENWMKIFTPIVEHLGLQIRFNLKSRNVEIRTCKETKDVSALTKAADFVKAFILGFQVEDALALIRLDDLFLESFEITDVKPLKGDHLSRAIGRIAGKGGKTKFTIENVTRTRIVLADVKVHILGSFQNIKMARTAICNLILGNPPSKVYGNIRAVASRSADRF

Substance | solubility change mitosis (log2) [1] | thermal stability score [2, 5] | thermal stability score ([2]; cell cycle stage: mitosis) | melting temperature ([3]; cell cycle stage: G1/S) [°C] | melting temperature ([3]; cell cycle stage: mitosis) [°C] | solubility in G1/S (log2) [4]
MYTAIPQSGSPFPGSVQDPGLHVWRVEKLKPVPVAQENQGVFFSGDSYLVLHNGPEEVSHLHLWIGQQSSRDEQGACAVLAVHLNTLLGERPVQHREVQGNESDLFMSYFPRGLKYQEGGVESAFHKTSTGAPAAIKKLYQVKGKKNIRATERALNWDSFNTGDCFILDLGQNIFAWCGGKSNILERNKARDLALAIRDSERQGKAQVEIVTDGEEPAEMIQVLGPKPALKEGNPEEDLTADKANAQAAALYKVSDATGQMNLTKVADSSPFALELLISDDCFVLDNGLCGKIYIWKGRKANEKERQAALQVAEGFISRMQYAPNTQVEILPQGHESPIFKQFFKDWK [CAPG] | -0.0974 | 0.941 | 0.63 | 50.2 | 50.3 | 0.272
MYTLLSGLYKYMFQKDEYCILILGLDNAGKTTFLEQSKTRFNKNYKGMSLSKITTTVGLNIGTVDVGKARLMFWDLGGQEELQSLWDKYYAECHGVIYVIDSTDEERLAESKQAFEKVVTSEALCGVPVLVLANKQDVETCLSIPDIKTAFSDCTSKIGRRDCLTQACSALTGKGVREGIEWMVKCVVRNVHRPPRQRDIT [ARFRP1] | -0.0831 | 0.162 | -0.992 |  | 52.8 | 0.0143
NARFL | -0.0938 | 0.41 | 0.802 | 54.2 | 53.8 | 0.0811
NAV1 | 0.0198 | 1.35 | 2.83 | 47.2 | 49 | -0.141
NBAS | -0.169 | 0.362 | 1.51 | 49.8 | 50.1 | -0.197
NCOR1 | 0.0133 | 0.817 | 5.94 | 48.5 | 52.2 | -0.0922
NDRG1 | 0.00645 | 1.68 | -0.0804 | 53.1 | 53.6 | 0.246
NDRG3 | -0.371 | 0.668 | 0.934 | 52.2 | 52 | 0.351
NF1 | -0.137 | -0.998 | -0.184 | 49.7 | 50.4 | -0.315
NFIB | -0.032 | 1.24 | 1.07 | 54.2 | 53.9 | 0.238
NRBP1 | -0.15 | 0.757 | 0.7 | 51.9 | 51.4 | 0.099
NUDC | -0.106 | 0.837 | -0.681 | 51.9 | 52.4 | 0.405
NUP205 | 0.203 | -4.5 | -6.17 | 52.1 | 48.8 | -0.671
NUP214 | 0.0567 | -1.39 | -1.03 | 50.5 | 49.8 | -0.301
OXCT1 | -0.0718 | -1.63 | -1.92 | 53 | 52.8 | 0.23
OXSR1 | -0.146 | 1.02 | 0.906 | 49.1 | 49.6 | 0.197
PARP4 | -0.107 | 1.67 | 0.026 | 50.7 | 49.8 | -0.0707
PCM1 | 0.65 | -0.276 | 0.507 | 49.8 | 50.3 | -0.73
PCNT | -0.162 | 2.3 | 2.45 | 50.8 | 52.9 | -0.221

Substance | solubility change mitosis (log2) [1] | thermal stability score [2, 5] | thermal stability score ([2]; cell cycle stage: mitosis) | melting temperature ([3]; cell cycle stage: G1/S) [°C] | melting temperature ([3]; cell cycle stage: mitosis) [°C] | solubility in G1/S (log2) [4]
PELP1 | 0.451 | -1.93 | -5.97 | 55.2 | 53.8 | -1.2
PKM | -0.106 | -2.6 | -2.54 | 57.8 | 57.4 | 0.116
PLEC | 0.643 | -8.96 | -8.24 | 53.2 | 52.7 | -2.57
PNKP | -0.0487 | 0.324 | 1.25 | 48.6 | 49.3 | 0.193
PNN | 0.808 | 0.124 | 3.19 | 48.6 | 50 | -1.25
PNO1 | 0.449 | 0.178 | 0.628 | 50.3 | 50 | -0.779
PPIB | 0.0983 | 4.65 | 4.71 | 53.8 | 54.4 | 0.0181
PPIC | -0.103 | 1.01 | -0.315 | 53.6 | 53.4 | 0.0897
PPIE | 0.13 | 1.18 | 2.29 | 49 | 51.7 | 0.351
PPIF | 0.14 | 0.427 | -1.83 | 52.2 | 52.1 | 0.731
PPP2R5A | -0.192 | 0.702 | 1.43 | 50.8 | 50.5 | 0.0389
PRRC2C | 0.111 | -0.644 | -2.2 | 55.6 | 55.2 | -0.328
PRSS21 | -0.176 | 0.469 | 0.197 | 52.9 | 52.9 | 0.0531
PTBP3 | 0.15 | 0.736 | 1.3 | 46.6 | 48 | -0.19
RAB14 | -0.0891 | -1.89 | -3.07 | 60.6 | 58.8 | 0.0669
RALGAPB | -0.169 | -1.55 | -1.73 | 50.2 | 51 | -0.0337
RAPGEF2 | -0.144 | -0.581 | -1.21 | 50.8 |  | -0.143
RHOG | -0.00567 | -1.81 | -2.65 | 55.9 | 55.2 | 0.562
SAMD9 | -0.171 | 0.5 | 1.68 | 47.5 | 49.2 | -0.156
